Three molecules from publication PMC5618617 (International Journal of Molecular Sciences, 2017) can be followed below.

Broadly, the Kd is the constant that tells how readily two partners part at equilibrium. What is called koff is the rate constant with which the complex falls apart. A high value points to fast dissociation. By kon is commonly meant the second-order rate constant of association. Lower therefore signals slow association.

No end group written: not given here. cellulose support = cellulose support (Whatman 50 cellulose membrane) to which the peptide C-terminus is covalently bound

What all share (conditions): both partners purified
Assay [1] concerns the target T1, human c-Met extracellular domain (ECD)-fragment crystallizable region (Fc) (human, UniProt P08581).
T1 construct: hepatocyte growth factor receptor (c-Met), human, extracellular domain; c-Met is naturally cut into alpha and beta chains; also called human c-Met ECD-Fc; recombinant human whole c-Met ECD-Fc; source: bought: Sino Biological, 10692-H03H
The experiment in a line: ELISA; competitive: recombinant human c-Met coated; pre-bound with or without 2.5 µg/mL HGF 1 h at room temperature; then IRCR201 or huOA5D5.v2 1 h; antibody detected with anti-human IgG F(ab')2-HRP. In general terms: An ELISA detects its analyte on a solid surface through an enzyme-linked reagent.

The target of assay [2] is T2, c-Met peptide E-7 (523–537) (Homo sapiens (Human)., cysteine pairing not given here).
T2 construct: c-Met, human, amino acids 523-537; source: synthetic peptide (JPT Peptide Technologies), on cellulose membrane
T2 chain: FQSCSQCLSAPPFVQ-{cellulose support}
Briefly: peptide or protein array; overlapping 15-mer peptides of c-Met 1-932, 5 nmol/spot, bound by the C-terminus to cellulose; scFv in 5% skim milk at 4 °C overnight; bound scFv electroblotted to PVDF and detected with anti-HA-peroxidase.

In assay [3] the target is T3, c-Met peptide G-7 (531–545) (Homo sapiens (Human)., cysteine pairing not given here).
T3 construct: c-Met, human, amino acids 531-545; source: synthetic peptide (JPT Peptide Technologies), on cellulose membrane
T3 chain: SAPPFVQCGWCHDKC-{cellulose support}
Described as above.

Assay [4] concerns the target T4, c-Met peptide F-7 (527–541) (Homo sapiens (Human)., cysteine pairing not given here).
T4 construct: c-Met, human, amino acids 527-541; source: synthetic peptide (JPT Peptide Technologies), on cellulose membrane
T4 chain: SQCLSAPPFVQCGWC-{cellulose support}
The description is as above.

For assay [5], the target named is T5, human RON (recepteur d'origine nantais) ECD-Fc (Homo sapiens, UniProt Q04912).
T5 construct: RON receptor tyrosine kinase (macrophage-stimulating protein receptor), human, extracellular domain; The legend calls it ECD-Fc; the catalogue number's ending (H08H) may stand for a His-tagged product (surmise); also called human RON protein; source: bought: Sino Biological, 11608-H08H
Briefly: ELISA; 0.1 µg antigen coated per well at 4 °C overnight, blocked with 3% skim milk; dilutions of IRCR201 1 h at room temperature; goat anti-human IgG F(ab')2-HRP.

The target of another assay is T6, bovine serum albumin (Bos taurus (Bovine)., UniProt P02769).
T6 construct: serum albumin, bovine; also called BSA
The experiment in a line: SPR; Biacore T100; human c-Met, mouse c-Met or BSA amine-coupled on a CM5 chip; different concentrations of purified IRCR201 injected.

In a further assay the target is T7, mouse c-Met ECD-Fc (Mus musculus, UniProt P16056).
T7 construct: hepatocyte growth factor receptor (c-Met), mouse, extracellular domain; source: bought: Sino Biological, 50622-M02H
Described as above.

The target in assay [6] is T1, human c-Met extracellular domain …. The description is as above.

B1: onartuzumab (huOA5D5.v2) (antibody, V domains shown)
VH: EVQLVESGGGLVQPGGSLRLSCAASGYTFTSYWLHWVRQAPGKGLEWVGMIDPSNSDTRFNPNFKDRFTISADTSKNTAYLQMNSLRAEDTAVYYCATYRSYVTPLDYWGQGTLVTVSS
VL: DIQMTQSPSSLSASVGDRVTITCKSSQSLLYTSSQKNYLAWYQQKPGKAPKLLIYWASTRESGVPSRFSGSGSGTDFTLTISSLQPEDFATYYCQQYYAYPWTFGQGTKVEIK
notes: second chain of the monovalent knob-into-hole format; Engineered monovalent (one-armed) antibody made with knob-into-hole technology; also called MetMab; source: Expi293 transient mammalian expression system, purified (HiTrap Mabselect SuRe); copies: 1 + 1 + 1
For B1, the binding result in assay [1] is reported as “binds”.

B2: IRCR201 single-chain variable fragment (scFv) (scFv, V domains shown)
VH: EVQLLESGGGLVQPGGSLRLSCAASGFTFSNYAMSWVRQAPGKGLEWVSGISYSGGSTYYADSVKGRFTISRDNSKNTLYLQMNSLRAEDTAVYYCAKASRSCQRPACSYANGMDVWGQGTLVTVSS
VL: QSVLTQPPSASGTPGQRVTISCTGSSSNIGNNYVTWYQQLPGTAPKLLIYYNNHRPSGVPDRFSGSKSGTSASLAISGLQSEDEADYYCGSWDYSLSAYVFGGGTKLTVL
notes: VH and VL as in m1; Detected with anti-HA-peroxidase; also called scFv of IRCR201; IRCR201 scFv; source: E. coli TOP10F', purified from bacterial lysates (Ni-NTA agarose)
As to B2, the binding result in assay [2], in assay [3] and in assay [4] was “binds” each time.

B3: IRCR201 (antibody, V domains shown)
VH: EVQLLESGGGLVQPGGSLRLSCAASGFTFSNYAMSWVRQAPGKGLEWVSGISYSGGSTYYADSVKGRFTISRDNSKNTLYLQMNSLRAEDTAVYYCAKASRSCQRPACSYANGMDVWGQGTLVTVSS
VL: QSVLTQPPSASGTPGQRVTISCTGSSSNIGNNYVTWYQQLPGTAPKLLIYYNNHRPSGVPDRFSGSKSGTSASLAISGLQSEDEADYYCGSWDYSLSAYVFGGGTKLTVL
notes: CDR-H3 of 18 amino acids; IgG1; frameworks are not pointed to; also called IRCR201 IgG1; fully human bivalent anti-c-Met antibody; source: Expi293 transient mammalian expression system, purified (HiTrap Mabselect SuRe); copies: 2 + 2
Turning to B3, the binding result in assay [5] was “no binding”. For the same molecule, the binding result with bovine serum albumin is listed as “no binding”. In the assay with mouse c-Met ECD-Fc, this molecule came in with a Kd of 0.845 nM, a koff of 0.00323 s⁻¹ and a kon of 3.83e+06 M⁻¹ s⁻¹. In assay [6], this molecule had an equilibrium dissociation constant (Kd) of 0.721 nM, an off-rate constant (koff) of 0.00304 s⁻¹ and a kon of 4.23e+06 M⁻¹ s⁻¹.
